# Laboratory results taken from patent US8105802B2, “Method of producing microbial transglutaminase” (Ajinomoto Co., Inc., priority 2003, dated 2012).
# B1: SVP35: neutral metalloprotease of about 35,000 from the cell surface of Streptoverticillium mobaraense IFO13819 (SEQ ID NO: 6) (protein)
# chain: VLRLTATPRTTALRAAALVASAAMVVVGVQTGSASASGDRDSGGLPLTLSASQRTAAIQEAQSGASATAAKIGLSGKEKLIARDVVKDADGTVHTRYERTYDGLPVLGGDLIVHEAKAGRSVTKANDATIALPSTDASLAPAAAKKSALSAAADQKTAKADGQAPRKVVWAAQGKPVLAYETVVTGVQKDGTPSELHVITDAASGKKLYQYEAIETGTGTSTYSGTVPLTTTKSGSQYQLNDGARGGHKTYDLNQGTSGTGSLFTNSTDTWGGGRQTAGVDAHYGAAVTWDFYKNVFGRNGIRNDGKAAYSRVHYGNSYVNAFWSDSCFCMTYGDGQNNKNPLTALDVAAHEMSHGVTAATAKLVYSGESGGLNEATSDIFGTAVEFYANNKTDVGDYLIGEKINIYGDGKPLRYMDKPSKDGKSKDSWYSGIGGVDVHYSSGPANHFFYLLSEGSGKKTINGVDYDSPTADGSKVTGIGRDKAQKIWYKALTTQFTSNTNYAKARTGTLNAAASLYGNNSAEYKAVAAAWSAINVK
# modifications: Streptoverticillium mobaraense
# B2: Streptomyces subtilisin inhibitor (SSI): Streptomyces subtilisin inhibitor derived from actinomycetes (protein)
# chain: DAPSALYAPSALVLTVGKGVSATTAAPERAVTLTCAPGPSGTHPAAGSACADLAAVGGDLNALTRGEDVMCPMVYDPVLLTVDGVWQGKRVSYERVFSNECEMNAHGSSVFAF
# How the values were obtained:
# [1] = system: SVP70; experiment: Inhibitory activities of various compounds to SVP70 (cleavage of peptide GPSFRAPDS); format: biochemical, Streptoverticillium mobaraense; settings: analogously to (3)-vi); concentrations shown in FIG. 5
# Description: (§1) The enzyme solution was added to 20 mM sodium phosphate buffer containing peptide GPSFRAPDS (Peptide Institute) (SEQ ID NO: 11) to yield 170 μl of total liquid volume, and it was reacted at 30° C. for 10 minutes, followed by heating at 95° C. for 5 minutes to terminate the reaction. 80 μl of this solution was analyzed by HPLC under the following conditions and its activity was calculated based on the decreased amount of the substrate.
# (§2) To 20 mM sodium phosphate buffer (pH 7.0) containing various compounds at the concentrations shown in FIG. 5, the purified enzyme solution was added and left for 60 minutes at room temperature. Then Gly-Pro-Ser-Phe-Arg-Ala-Pro-Asp-Ser (SEQ ID NO: 11) was added as a substrate and reacted for 10 minute at 30° C. The relative activity by adding each compound was calculated based on the Gly-Pro-Ser-Phe-Arg-Ala-Pro-Asp-Ser (SEQ ID NO: 11) cleavage activity in the absence of compounds as 100%.
# The inhibitory activities of various compounds to SVP70 were examined analogously to (3)-vi).
# [2] = system: SVP35; experiment: Inhibitory activities of various compounds to SVP35 (cleavage of peptide GPSFRAPDS); format: biochemical, Streptoverticillium mobaraense; settings: concentrations shown in FIG. 5; 60 minutes at room temperature, then substrate 10 minute at 30° C., pH 7.0
# Description: as §1, §2
# [3] = system: Gly-Pro-Ser-Phe-Arg-Ala-Pro-Asp-Ser (SEQ ID NO: 11); experiment: Optimum temperature of the protease; format: biochemical
# Description: To the purified enzyme solution diluted with 20 mM Tris-HCl buffer (pH 7.5) containing 5 mM calcium chloride and 0.01 mM zinc chloride Gly-Pro-Ser-Phe-Arg-Ala-Pro-Asp-Ser (SEQ ID NO: 11) was added and reacted at pH 7.0, between 5° C. and 65° C. for 10 minutes. As a result, it was shown that the Optimum temperature of SVP35 was about 45° C. and it had high activity within the range of 40° C. to 50° C.
# The Optimum temperature of SVP70 was examined similarly as (3)-iv). As a result, it was shown that the Optimum temperature of SVP70 was within the range from about 50° C. to 55° C., especially around 55° C. (see FIG. 3).
# [4] = system: pro-MTG; experiment: Conversion of pro-MTG into active MTG, substrate:enzyme 200:1 (SDS-PAGE, hydroxamate method); format: biochemical, Streptoverticillium mobaraense; settings: substrate:enzyme=200:1, 30° C.
# Description: Using pro-MTG (1 mg/ml) expressed by Corynebacterium glutamicum as a purified substrate, the neutral protease (SVP35, SVP70) from Streptoverticillium mobaraense or the neutral metalloprotease SGMP II from Streptomyces griseus was mixed in the ratio of the substrate:the enzyme=200:1, the mixture was reacted at 30° C. After 0, 1, 2, 4, 7, 20 hours, the reaction mixture was sequentially picked up, and the aliquots of the reaction mixture were mixed with SDS-PAGE sample buffer and heated at 95° C. for 3 minutes, and then subjected to SDS-PAGE according to Laemmli's method (Nature, 227, 680-685 (1970)). […] In addition, SGMP II was purified from actinase (Kakenseiyaku Co. Ltd.) according to the reference method (J. Biocem., Vol. 110, p. 339-344, 1991).
# [5] = system: insulin B and pro-MTG; experiment: Substrate specificity (cleavage points, HPLC and sequencing of fragments); format: biochemical; settings: 30° C., 2 hours, pH 7.5
# Description: 1 mg/ml of insulin B solution and pro-MTG solution prepared in 20 mM Tris-HCl buffer (pH 7.5) containing 5 mM calcium chloride and 0.01 mM zinc chloride was used as a substrate, and an enzyme solution was added to the solution to react at 30° C. for 2 hours, and then peptide fragments were separated by HPLC under the following conditions:
# The amino acid sequences of the obtained peptide fragments were analyzed by PPSQ-10 (Shimadzu Co. Ltd.) to characterize the sequences of the cleavage points for SVP35.
# The substrate specificity was examined similarly as described in (3)-i).
# [6] = system: Gly-Pro-Ser-Phe-Arg-Ala-Pro-Asp-Ser (SEQ ID NO: 11); experiment: Temperature stability of the protease; format: physicochemical; settings: 15 minutes; activity treated at 4° C. defined as 100%
# Description: To 10 μl of the purified enzyme solution, 40 μl of 20 mM Tris-HCl buffer (pH 7.5) containing 5 mM calcium chloride and 0.01 mM zinc chloride was added to treat at 4° C. or at from 30° C. to 70° C. for 15 minutes, and then cooled by ice, added 250 μl of 20 mM sodium phosphate buffer (pH 7.0). To this enzyme solution, Gly-Pro-Ser-Phe-Arg-Ala-Pro-Asp-Ser (SEQ ID NO: 11) was added as a substrate and reacted at 30° C. for 5 minutes. When the activity treated at 4° C. was defined as 100%, the remaining activity at each temperature was calculated. […] (see FIG. 4).
# [7] = system: Gly-Pro-Ser-Phe-Arg-Ala-Pro-Asp-Ser (SEQ ID NO: 11); experiment: pH stability of the protease; format: physicochemical
# Description: To 10 μl of SVP35 purified enzyme solution, 40 μl of each pH of 0.15 M GTA buffer from pH 3 to pH 10 was added, left at 4° C. overnight, followed by addition of 0.1 M sodium phosphate buffer (pH 7.0) to the liquid volume of 400 μl, and was adjusted to pH 7.0. To these enzyme solutions, Gly-Pro-Ser-Phe-Arg-Ala-Pro-Asp-Ser (SEQ ID NO: 11) was added as a substrate, and reacted at pH 7.0, at 30° C. for 10 minutes.
# The pH stability was examined similarly to (3)-iii).
# [8] = system: Gly-Pro-Ser-Phe-Arg-Ala-Pro-Asp-Ser (SEQ ID NO: 11); experiment: Optimum pH of the protease (peptide cleavage in GTA buffer pH 3 to pH 10); format: biochemical
# Description: as §1
# In 0.15 M GTA buffer (buffered by 3,3-dimethyl glutaric acid, Tris (hydroxy methyl) amino methane, 2-amino-2-methyl-1,3-propanediol) from pH 3 to pH 10, SVP35 was allowed to act on Gly-Pro-Ser-Phe-Arg-Ala-Pro-Asp-Ser (SEQ ID NO: 11) as a substrate at 30° C. for 10 minutes.
# The Optimum pH of SVP70 was examined similarly as (3)-ii).
# [9] = activity at pH 7.0 defined as 100%
molecule,measurement,setting,value
O[C@H](CS)[C@H](O)CS (racemic) [dithiothreitol],inhibition of SVP70 activity,[1],strong inhibitory action
"c1cnc2c(c1)ccc1cccnc12 [1,10-phenanthroline]",inhibition of SVP35 Gly-Pro-Ser-Phe-Arg-Ala-Pro-Asp-Ser cleavage activity,[2],strongly inhibited
same,inhibition of SVP70 activity,[1],strong inhibitory action
O=C(O)CN(CCN(CC(=O)O)CC(=O)O)CC(=O)O [ethylene diamine tetraacetic acid],inhibition of SVP35 Gly-Pro-Ser-Phe-Arg-Ala-Pro-Asp-Ser cleavage activity,[2],strongly inhibited
same,inhibition of SVP70 activity,[1],strong inhibitory action
CC(C)C[C@H](NP(=O)(O)O[C@@H]1O[C@@H](C)[C@H](O)[C@@H](O)[C@H]1O)C(=O)N[C@@H](Cc1c[nH]c2ccccc12)C(=O)O [phosphoramidon],inhibition of SVP35 Gly-Pro-Ser-Phe-Arg-Ala-Pro-Asp-Ser cleavage activity,[2],strongly inhibited
same,inhibition of SVP70 activity,[1],strong inhibitory action
NC(N)=O [urea],inhibition of SVP70 activity,[1],strong inhibitory action
B1,activity within 40° C. to 50° C. relative to that at 45° C.,"[3]; pH 7.0, 10 minutes",≥ 80%
same,Optimum temperature,"[3]; pH 7.0, between 5° C. and 65° C., 10 minutes",about 45 °C
same,"transglutaminase (TG) activity of the picked up fraction, hydroxamate method",[4],sufficient activity was confirmed
same,conversion of pro-MTG to the mature form (SDS-PAGE),[4]; 0-20 hours,converted to the mature forms
same,reduction of produced MTG after long-term reaction,[4]; up to 20 hours,not reduced even after a long-term reaction
same,amino acids recognized at the cleavage site,[5],aromatic amino acids and hydrophobic amino acids with bulky side-chains positioned at P′ 1
same,cleavage points (residue before which the substrate is cleaved),[5],"especially Phe, often Leu, sometimes Tyr, Trp, Ile, Val"
same,remaining activity after treatment at 50° C.,[6],80%
same,remaining activity after treatment at 60° C.,[6],lost its activity
same,activity after treatment at pH 4-10,[7]; activity at pH 4.0 defined as 100%,≥ 90%
same,pH Stability (stable pH range),"[7]; left at 4° C. overnight at each pH, then reacted at pH 7.0, 30° C., 10 minutes",4-10
same,Optimum pH,"[8]; 0.15 M GTA buffer pH 3 to pH 10, 30° C., 10 minutes",around 7.0
same,activity at pH 6.0-8.0,[8]; [9],≥ 70%
same,activity at pH 6.5-7.5,[8]; [9],≥ 80%
B2,inhibition of SVP35 Gly-Pro-Ser-Phe-Arg-Ala-Pro-Asp-Ser cleavage activity,[2],strongly inhibited
same,inhibition of SVP70 activity,[1],strong inhibitory action
